Measurements: patent publication US20230220008A1 (Bicycle, published 2023)
Starred links: 1 amine or outer side, 2 acyl side, 3 side chain; linkers in the order of their positions; H or OH if unused. Positions of bridges follow the written chain, without caps; N, C: chain ends. Non-standard residues stand in square brackets, D forms with d. No end group written: not given here. BCN = bicyclo[6.1.0]non-4-yn-9-ylmethyl carbonate as carbamate, click handle; TATA = O=C(CC[*:1])N1CN(C(=O)CC[*:2])CN(C(=O)CC[*:3])C1; tBuAla = CC(C)(C)C[C@H](N)C(=O)O; Nle = CCCC[C@H](N)C(=O)O; PYA = propargyl-acid

B1: BCY8150 (peptide)
peptide: Ac-ACIEK(BCN)GQYCFADPY[Nle]CA
modifications: linker 2-9-16 via TATA; not fully specified; also: tetramer of four peptide units on central hinge A (TET) via spacer S1A n=10
B2: BCY8151 (peptide)
peptide: Ac-ACIEEGK(BCN)YCFADPY[Nle]CA
modifications: linker 2-9-16 via TATA; not fully specified; also: trimer of three peptide units on central hinge B (TCA) via spacer S1A n=10
B3: BCY8581 (peptide)
peptide: XACIEEGQYCFADPYXCA
modifications: not fully specified; (PYA)-A-CiIEEGQYCiiF[D-A]DPY[Nle]Ciii-A; Cys on TATA scaffold
B4: BCY8584 (peptide)
peptide: XACIEEGQYCFADPYXCA
modifications: not fully specified; (PYA)-A-CiIEEGQYCiiF[D-A]DPY[Nle]Ciii-A; Cys on TATA scaffold
B5: BCY8583 (peptide)
peptide: XACIEEGQYCFADPYXCA
modifications: not fully specified; (PYA)-A-CiIEEGQYCiiF[D-A]DPY[Nle]Ciii-A; Cys on TATA scaffold
B6: BCY8582 (peptide)
peptide: XACIEEGQYCFADPYXCA
modifications: not fully specified; (PYA)-A-CiIEEGQYCiiF[D-A]DPY[Nle]Ciii-A; Cys on TATA scaffold
B7: BCY7845 (peptide)
peptide: Ac-ACIEEGK(PYA)YCFADPY[Nle]CA
modifications: linker 2-9-16 via TATA; not fully specified; also: tetramer of four peptide units on central hinge A (TET) via spacer S1A n=10
B8: BCY8926 (peptide)
peptide: Ac-ACIEK(PYA)GQYCF[dA]DPY[Nle]CA
modifications: linker 2-9-16 via TATA
notes: Bicyclic peptide monomer; also called Monomer 14A
B9: BCY8935 (peptide)
peptide: XACIEEGQYCFXDPYXCA
modifications: (PYA)-A-CiIEEGQYCiiF[D-A]DPY[Nle]Ciii-A; Ci, Cii, Ciii cyclised on TATA
notes: Bicyclic peptide monomer; also called Monomer 10A
B10: BCY8925 (peptide)
peptide: Ac-ACIE[dK](PYA)GQYCF[dA]DPY[Nle]CA
modifications: linker 2-9-16 via TATA
notes: Bicyclic peptide monomer; also called Monomer 13A
B11: BCY7746 (peptide)
peptide: Ac-ACIEEGQYCK(PYA)ADPY[Nle]CA
modifications: linker 2-9-16 via TATA
notes: Bicyclic peptide monomer; also called Monomer 7A
B12: BCY7741 (peptide)
peptide: ACIEEGQYCFADPYXCX
modifications: Ac-A-CiIEEGQYCiiFADPY(Nle)Ciii-Dap(PYA); Ci, Cii, Ciii cyclised on TATA
notes: Bicyclic peptide monomer; also called Monomer 2A
B13: BCY8142 (peptide)
peptide: Ac-ACIEK(BCN)GQYCFADPY[Nle]CA
modifications: linker 2-9-16 via TATA
notes: Bicyclic peptide monomer; also called Monomer 4-BCN
B14: BCY8927 (peptide)
peptide: Ac-C[tBuAla]PK(PYA)[dA]PYCFADPY[Nle]CA
modifications: linker 1-8-15 via TATA
notes: Bicyclic peptide monomer; also called Monomer 11A
B15: BCY7745 (peptide)
peptide: Ac-ACIEEGK(PYA)YCFADPY[Nle]CA
modifications: linker 2-9-16 via TATA
notes: Bicyclic peptide monomer; also called Monomer 6A
B16: BCY7740 (peptide)
peptide: XACIEEGQYCFADPYXCA
modifications: (PYA)-A-CiIEEGQYCiiFADPY(Nle)Ciii-A; Ci, Cii, Ciii cyclised on TATA
notes: Bicyclic peptide monomer; also called Monomer 1A
B17: BCY8143 (peptide)
peptide: Ac-ACIEEGK(BCN)YCFADPY[Nle]CA
modifications: linker 2-9-16 via TATA
notes: Bicyclic peptide monomer; also called Monomer 6-BCN
B18: BCY8141 (peptide)
peptide: XACIEEGQYCFADPYXCA
modifications: (BCN)-A-CiIEEGQYCiiFADPY(Nle)Ciii-A; Ci, Cii, Ciii cyclised on TATA
notes: Bicyclic peptide monomer; also called Monomer 1-BCN
B19: BCY7743 (peptide)
peptide: Ac-ACIEK(PYA)GQYCFADPY[Nle]CA
modifications: linker 2-9-16 via TATA
notes: Bicyclic peptide monomer; also called Monomer 4A
B20: BCY7748 (peptide)
peptide: ACIEEGQYCFADPYXCA
modifications: Ac-A-CiIEEGQYCiiFADPYK(PYA)Ciii-A; Ci, Cii, Ciii cyclised on TATA
notes: Bicyclic peptide monomer; also called Monomer 9A
B21: BCY7747 (peptide)
peptide: Ac-ACIEEGQYCFADK(PYA)Y[Nle]CA
modifications: linker 2-9-16 via TATA
notes: Bicyclic peptide monomer; also called Monomer 8A
B22: BCY8097 (peptide)
peptide: ACIEEGQYCFADPYXCA
modifications: Ac-A-CiIEEGQYCiiFADPYK(BCN)Ciii-A; Ci, Cii, Ciii cyclised on TATA
notes: Bicyclic peptide monomer; also called Monomer 9-BCN
B23: BCY8144 (peptide)
peptide: Ac-ACIEEGQYCK(BCN)ADPY[Nle]CA
modifications: linker 2-9-16 via TATA
notes: Bicyclic peptide monomer; also called Monomer 7-BCN
B24: BCY7742 (peptide)
peptide: Ac-ACIK(PYA)EGQYCFADPY[Nle]CA
modifications: linker 2-9-16 via TATA
notes: Bicyclic peptide monomer; also called Monomer 3A
B25: BCY8095 (peptide)
peptide: Ac-ACIK(BCN)EGQYCFADPY[Nle]CA
modifications: linker 2-9-16 via TATA
notes: Bicyclic peptide monomer; also called Monomer 3-BCN

target: T1, CD137 on Jurkat reporter cells (Promega) (UniProt Q07011 24-255, limits assumed); assay: cell-based or functional assay
T1 sequence (Q07011 24-255 limits assumed): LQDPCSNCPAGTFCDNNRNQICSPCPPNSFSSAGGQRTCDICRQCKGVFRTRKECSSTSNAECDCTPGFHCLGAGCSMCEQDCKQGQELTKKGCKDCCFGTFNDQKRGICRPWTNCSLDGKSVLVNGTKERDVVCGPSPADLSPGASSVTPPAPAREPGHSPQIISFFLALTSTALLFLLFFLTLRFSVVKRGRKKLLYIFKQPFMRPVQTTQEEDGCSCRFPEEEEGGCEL

Q: Which results are given for B1?
A: Average Fold EC50 Improvement relative to CD137L: 4.14 fold; Average Relative Fold Induction relative to CD137L: 0.77 fold

Q: How did the “Fold Induction over Background” value turn out when Ac-ACIEK(PYA)GQYCF[dA]DPY[Nle]CA (linker 2-9-16 via TATA; not fully specified) [BCY8937] was run?
A: < 2 fold

Q: Which “Average Fold EC50 Improvement relative to CD137L” value does the source give for B2 here?
A: 213 fold

Q: What about the “Average Relative Fold Induction relative to CD137L” value of the same binder?
A: 0.49 fold

Q: Which “Fold Induction over Background” value does the source give for B3 here?
A: < 2 fold

Q: With B4 as the binder, how does the “Fold Induction over Background” value read?
A: < 2 fold

Q: Which results are given for XACIEEGQYCFADPYXCA (not fully specified; (BCN)-A-CiIEEGQYCiiFADPY(Nle)Ciii-A; Cys on TATA scaffold) [BCY8149]?
A: Average Fold EC50 Improvement relative to CD137L: 140 fold; Average Relative Fold Induction relative to CD137L: 0.93 fold

Q: Which results are given for B5?
A: Average Fold EC50 Improvement relative to CD137L: 0.031 fold; Average Relative Fold Induction relative to CD137L: 3.14 fold

Q: How did the “Fold Induction over Background” value turn out when B6 was run?
A: < 2 fold

target: T1, CD137 on Jurkat reporter cells (Promega); assay: cell-based or functional assay; remark: another data set of the same source

Q: Which results are given for Ac-C[tBuAla]PE[dK](PYA)PYCFADPY[Nle]CA (linker 1-8-15 via TATA; not fully specified) [BCY8947]?
A: Average Fold EC50 Improvement relative to BCY7845: 1.33 fold; Average Relative Fold Induction relative to BCY7845: 0.62 fold

Q: How did the “Fold Induction over Background” value turn out when Ac-C[tBuAla]PE[dK](PYA)PYCFADPY[Nle]CA (linker 1-8-15 via TATA; not fully specified) [BCY8948] was run?
A: < 2 fold

Q: How did the “Fold Induction over Background” value turn out when Ac-ACIEK(PYA)GQYCFADPY[Nle]CA (linker 2-9-16 via TATA; not fully specified) [BCY8962] was run?
A: < 2 fold

Q: For Ac-ACIEK(PYA)GQYCFADPY[Nle]CA (linker 2-9-16 via TATA; not fully specified) [BCY8959], which “Fold Induction over Background” value is on record?
A: < 2 fold

Q: How did the “Fold Induction over Background” value turn out when Ac-ACIEK(PYA)GQYCFADPY[Nle]CA (linker 2-9-16 via TATA; not fully specified) [BCY8957] was run?
A: < 2 fold

Q: Ac-ACIEK(PYA)GQYCFADPY[Nle]CA (linker 2-9-16 via TATA; not fully specified) [BCY8965] was tested. Which “Fold Induction over Background” value did it give?
A: < 2 fold

Q: With Ac-ACIEK(PYA)GQYCF[dA]DPY[Nle]CA (linker 2-9-16 via TATA; not fully specified) [BCY9113] as the binder, how does the “Fold Induction over Background” value read?
A: < 2 fold

Q: How did the “Fold Induction over Background” value turn out when Ac-ACIEK(PYA)GQYCFADPY[Nle]CA (linker 2-9-16 via TATA; not fully specified) [BCY8961] was run?
A: < 2 fold

Q: How did the “Average EC50” value turn out when B7 was run?
A: 0.57 nM

Q: And the Average fold induction?
A: 6.3 fold

target: T2, Recombinant human CD137 (R&D systems), biotinylated (human, UniProt Q07011 24-186, biotinylated with EZ-Link Sulfo-NHS-LC-LC-Biotin); assay: SPR (Biacore), biotinylated human CD137 captured on streptavidin chip
T2 construct: Bought protein; Captured on a streptavidin chip; also called human CD137 protein; 4-1BB
T2 sequence (Q07011 24-186 limits assumed): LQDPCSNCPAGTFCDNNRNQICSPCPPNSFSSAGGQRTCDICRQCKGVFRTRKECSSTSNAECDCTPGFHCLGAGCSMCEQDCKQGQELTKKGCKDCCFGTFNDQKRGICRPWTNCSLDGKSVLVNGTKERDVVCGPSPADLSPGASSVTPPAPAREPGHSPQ

Q: Does B8 bind?
A: no binding (tested: No binding up to 5 µM)

Q: Does B9 bind?
A: no binding (tested: No binding up to 5 µM)

Q: Does B10 bind?
A: no binding (tested: No binding up to 5 µM)

target: T2, Recombinant human CD137 (R&D systems), …; assay: SPR (Biacore), biotinylated human CD137 captured on streptavidin chip, peptide as analyte, 25°C
Experimental: (§1) Biacore experiments were performed to determine kₐ (M⁻¹s⁻¹), kd (s⁻¹), KD (nM) values of monomeric peptides binding to human CD137 protein. […] The protein was desalted to remove uncoupled biotin using spin columns into PBS.
(§2) For analysis of peptide binding, a Biacore T200 or a Biacore 3000 instrument was used with a XanTec CMD500D chip. Streptavidin was immobilized on the chip using standard amine-coupling chemistry at 25° C. with HBS-N(10 mM HEPES, 0.15 M NaCl, pH 7.4) as the running buffer. Briefly, the carboxymethyl dextran surface was activated with a 7 min injection of a 1:1 ratio of 0.4 M 1-ethyl-3-(3-dimethylaminopropyl) carbodiimide hydrochloride (EDC)/0.1 M N-hydroxy succinimide (NHS) at a flow rate of 10 μl/min. For capture of streptavidin, the protein was diluted to 0.2 mg/ml in 10 mM sodium acetate (pH 4.5) and captured by injecting 120 μl of onto the activated chip surface. Residual activated groups were blocked with a 7 min injection of 1 M ethanolamine (pH 8.5) and biotinylated CD137 captured to a level of 270-1500 RU. Buffer was changed to PBS/0.05% Tween 20 and a dilution series of the peptides was prepared in this buffer with a final DMSO concentration of 0.5%. The top peptide concentration was 500 nM with 6 further 2-fold or 3-fold dilutions. The SPR analysis was run at 25° C. at a flow rate of 90 μl/min with 60 seconds association and 900 seconds dissociation. After each cycle a regeneration step (10 μl of 10 mM glycine pH 2) was employed. Data were corrected for DMSO excluded volume effects as needed. All data were double-referenced for blank injections and reference surface using standard processing procedures and data processing and kinetic fitting were performed using Scrubber software, version 2.0c (BioLogic Software). Data were fitted using simple 1:1 binding model allowing for mass transport effects where appropriate.

Q: How did the Kd turn out when B11 was run?
A: 260 nM

Q: Which Kd does the source give for B12 here?
A: 122 nM

Q: B13 was tested. Which Kd did it give?
A: 321 nM

Q: B14 was tested. Which Kd did it give?
A: 12.3 nM

Q: For B15, which Kd is on record?
A: 63.1 nM

Q: With B16 as the binder, how does the Kd read?
A: 88 nM

Q: How did the Kd turn out when B17 was run?
A: 112 nM

Q: Which Kd does the source give for B18 here?
A: 57.8 nM

Q: With B19 as the binder, how does the Kd read?
A: 101 nM

Q: With B20 as the binder, how does the Kd read?
A: 264 nM

Q: How did the Kd turn out when B21 was run?
A: 361 nM

Q: With Ac-C[tBuAla]PE[dK](PYA)PYCFADPY[Nle]CA (linker 1-8-15 via TATA, also called Monomer 12A) [BCY8928] as the binder, how does the Kd read?
A: 11.4 nM

Q: How did the Kd turn out when B22 was run?
A: 99.4 nM

Q: Which Kd does the source give for B23 here?
A: 66.7 nM

target: T2, Recombinant human CD137 (R&D systems), …; assay: SPR (Biacore), biotinylated human CD137 captured on streptavidin chip, peptide as analyte, 25°C; BCY7742 (Monomer 3A), a separate monomer number from BCY8095
Experimental: as §1
as §2, with “After each cycle a regeneration step (10 μl of 10 mM glycine pH 2) was employed. Data were corrected for DMSO excluded volume effects as needed. All data were double-referenced for blank injections and reference surface using standard processing procedures and data processing and kinetic fitting were performed using Scrubber software, version 2.0c (BioLogic Software). Data were fitted using simple 1:1 binding model allowing for mass transport effects where appropriate.” left out

Q: B24 was tested. Which Kd did it give?
A: 855 nM

target: T2, Recombinant human CD137 (R&D systems), …; assay: SPR (Biacore), biotinylated human CD137 captured on streptavidin chip, peptide as analyte, 25°C; BCY8095 (Monomer 3-BCN), a separate monomer number from BCY7742
Experimental: as §1
as §2, with “After each cycle a regeneration step (10 μl of 10 mM glycine pH 2) was employed. Data were corrected for DMSO excluded volume effects as needed. All data were double-referenced for blank injections and reference surface using standard processing procedures and data processing and kinetic fitting were performed using Scrubber software, version 2.0c (BioLogic Software). Data were fitted using simple 1:1 binding model allowing for mass transport effects where appropriate.” left out

Q: With B25 as the binder, how does the Kd read?
A: 0.685 nM
